Assay results from publication PMC12756210, “Calcium signaling-mediated phosphorylation controls zinc allocation in Arabidopsis” (Stress Biology, 2025).

Tests used:
CIPK26-His = biological target: T1, CIPK26-His (Arabidopsis, UniProt Q84VQ3 1-439); assay: pull-down; GST-ZIP2-Loop (or GST) on glutathione beads incubated with His-CIPK3/9/23/26; eluate blotted with anti-His antibody; settings: both partners purified
T1 construct: amplified and cloned into pET30a; Printed both as CIPK3/9/23/26-His and as His-CIPK3/9/23/26, so the end of the tag is open; also called His-CIPK26; source: recombinant, cloned into pET30a
T1 sequence (looked up): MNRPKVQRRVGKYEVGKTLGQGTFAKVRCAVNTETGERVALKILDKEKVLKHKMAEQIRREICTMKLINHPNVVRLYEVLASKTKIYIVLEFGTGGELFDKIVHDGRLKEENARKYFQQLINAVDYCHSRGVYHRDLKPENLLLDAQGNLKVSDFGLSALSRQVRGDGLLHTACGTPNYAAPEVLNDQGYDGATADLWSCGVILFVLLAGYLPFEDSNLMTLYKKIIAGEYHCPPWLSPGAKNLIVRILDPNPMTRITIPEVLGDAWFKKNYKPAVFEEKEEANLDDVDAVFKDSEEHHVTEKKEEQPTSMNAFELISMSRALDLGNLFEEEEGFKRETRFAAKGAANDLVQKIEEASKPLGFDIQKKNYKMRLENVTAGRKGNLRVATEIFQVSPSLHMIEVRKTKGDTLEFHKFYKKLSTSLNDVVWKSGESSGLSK

CIPK23-His = biological target: T2, CIPK23-His (Arabidopsis, UniProt Q93VD3 1-482); assay: as above; settings: both partners purified
T2 construct: amplified and cloned into pET30a; Printed both as CIPK3/9/23/26-His and as His-CIPK3/9/23/26, so the end of the tag is open; also called His-CIPK23; source: recombinant, cloned into pET30a
T2 sequence (looked up): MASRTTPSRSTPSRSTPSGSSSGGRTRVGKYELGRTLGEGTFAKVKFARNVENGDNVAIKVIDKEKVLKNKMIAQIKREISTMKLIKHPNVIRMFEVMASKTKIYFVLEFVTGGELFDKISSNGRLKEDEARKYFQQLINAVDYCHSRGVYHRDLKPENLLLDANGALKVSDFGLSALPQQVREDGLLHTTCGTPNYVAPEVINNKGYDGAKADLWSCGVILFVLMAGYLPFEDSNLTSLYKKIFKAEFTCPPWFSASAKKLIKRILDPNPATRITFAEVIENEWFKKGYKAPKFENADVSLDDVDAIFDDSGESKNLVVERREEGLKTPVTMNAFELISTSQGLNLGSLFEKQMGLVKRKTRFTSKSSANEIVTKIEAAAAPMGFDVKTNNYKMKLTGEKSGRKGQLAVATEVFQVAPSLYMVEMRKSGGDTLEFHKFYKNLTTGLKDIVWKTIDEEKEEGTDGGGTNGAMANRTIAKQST

B1: GST-ZIP2-Loop (domain or fragment, Arabidopsis, UniProt Q9LTH9 151-203, looked up)
chain: VAAGSNNNHVGASVGESREDDDVAVKEEGRREIKSGVDVSQALIRTSGFGDTA
notes: Zn transporter ZIP2, Arabidopsis; the largest Loop domain, residues 151-203 (451-609 bp of the CDS); Printed as GST-ZIP2-Loop and as ZIP2-Loop-GST; pGEX4T-1 normally places GST at the N-terminus (surmised); also called ZIP2-Loop-GST; source: prokaryotic fusion protein (pGEX4T-1), purified
binding result (CIPK26-His): binds | binding result (CIPK23-His): binds
